From paper PMC8633789, “Transmembrane topology and oligomeric nature of an astrocytic membrane protein, MLC1” (Open Biology, 2021)
One block for each molecule: values may come before it.

Key:
[1] = molecular target: codon-optimized chicken MLC1 with 6× His-tag (chicken); experiment: cross-linking; glutaraldehyde (400-fold molar excess) on protein-detergent micelles (0.5-0.9 µg protein/µl), 1, 10 or 30 min at 23°C, SDS-PAGE; cross-linking largely inhibited with 2% SDS
CLC-ck2 = experiment: SEC-MALS; SEC-MALS-RI, Superdex-200 Increase 10/300 GL, 1 mg/ml in 200 µl, 150 mM NaCl, 20 mM HEPES pH 7.5, 2 mM DDM
[2] = molecular target: the molecule itself; experiment: cross-linking; glutaraldehyde (400-fold molar excess) on protein-detergent micelles (0.5-0.9 µg protein/µl), 1, 10 or 30 min at 23°C, SDS-PAGE; cross-linking largely inhibited with 2% SDS
[3] = molecular target: the molecule itself; experiment: single-molecule photobleaching (TIRFM); proteoliposomes (POPE:POPG 3:1, 0.1 mol% biotinyl CAP-PE, 0.4 µg protein/mg lipid) immobilised on a coated coverslip; distribution of GFP bleaching steps compared with binomial models, p = 0.8
[4] = molecular target: the molecule itself; experiment: SEC-MALS; SEC-MALS-RI, Superdex-200 Increase 10/300 GL, 1 mg/ml in 200 µl, 150 mM NaCl, 20 mM HEPES pH 7.5, 2 mM DDM

stoichiometry N [1]: 3
Molecule: codon-optimized chicken MLC1 with 6× His-tag (natural protein)

Molecule: CLC-ck2 (natural protein)
stoichiometry N (CLC-ck2): 2

B1: 3× Flag-tagged human MLC1 (natural protein, UniProt Q15049-1 1-377, looked up)
chain: MTQEPFREELAYDRMPTLERGRQDPASYAPDAKPSDLQLSKRLPPCFSHKTWVFSVLMGSCLLVTSGFSLYLGNVFPAEMDYLRCAAGSCIPSAIVSFTVSRRNANVIPNFQILFVSTFAVTTTCLIWFGCKLVLNPSAININFNLILLLLLELLMAATVIIAARSSEEDCKKKKGSMSDSANILDEVPFPARVLKSYSVVEVIAGISAVLGGIIALNVDDSVSGPHLSVTFFWILVACFPSAIASHVAAECPSKCLVEVLIAISSLTSPLLFTASGYLSFSIMRIVEMFKDYPPAIKPSYDVLLLLLLLVLLLQAGLNTGTAIQCVRFKVSARLQGASWDTQNGPQERLAGEVARSPLKEFDKEKAWRAVVVQMAQ
notes: human MLC1 (megalencephalic leukoencephalopathy with subcortical cysts protein 1), cDNA NM_015166.3 from GenScript; The predicted mass of the tagged monomer (approx. 44 kDa) fits the whole protein; also called 3× Flag-hMLC1; hMLC1; not shown: 3× Flag, N-terminal, kept
stoichiometry N [2]: 3

B2: 3× Flag-tagged hMLC1-GFP (natural protein, human, UniProt Q15049-1 1-377, looked up)
chain: B1 chain
notes: human MLC1, cDNA NM_015166.3; probably as for 3× Flag-hMLC1 (HEK293S GnTI-); also called 3× F-hMLC1-G; 3× F-hMLC1-GFP; source: reconstituted into POPE:POPG proteoliposomes; not shown: 3× Flag, N-terminal, kept; GFP, C-terminal, kept
stoichiometry N [3]: 3

B3: CLC-ec1 (natural protein, UniProt P37019 1-473, looked up)
chain: MKTDTPSLETPQAARLRRRQLIRQLLERDKTPLAILFMAAVVGTLVGLAAVAFDKGVAWLQNQRMGALVHTADNYPLLLTVAFLCSAVLAMFGYFLVRKYAPEAGGSGIPEIEGALEDQRPVRWWRVLPVKFFGGLGTLGGGMVLGREGPTVQIGGNIGRMVLDIFRLKGDEARHTLLATGAAAGLAAAFNAPLAGILFIIEEMRPQFRYTLISIKAVFIGVIMSTIMYRIFNHEVALIDVGKLSDAPLNTLWLYLILGIIFGIFGPIFNKWVLGMQDLLHRVHGGNITKWVLMGGAIGGLCGLLGFVAPATSGGGFNLIPIATAGNFSMGMLVFIFVARVITTLLCFSSGAPGGIFAPMLALGTVLGTAFGMVAVELFPQYHLEAGTFAIAGMGALLAASIRAPLTGIILVLEMTDNYQLILPMIITGLGATLLAQFTGGKPLYSAILARTLAKQEAEQLARSKAASASENT
notes: CLC-ec1, control membrane protein, approximately 100 kDa as a dimer; also called CLC-ec1 dimer
stoichiometry N [4]: 2
